Results: patent US20250082727A1, “CXCL14-BASED COMPOSITIONS AND METHOD FOR ENHANCING CARTILAGE REGENERATION” (FAR EASTERN MEMORIAL HOSPITAL, priority 2023, published 2025)

B1: CXCL14: small cytokine of the CXC chemokine family, Homo sapiens CXCL14, amino acid sequence SEQ ID NO: 1 (protein, listed as Homo sapiens)
chain: MSLLPRRAPPVSMRLLAAALLLLLLALYTARVDGSKCKCSRKGPKIRYSDVKKLEMKPKYPHCEEKMVIITTKSVSRYRGQEHCLHPKLQSTKRFIKWYNAWNEKRRVYEE

How the values were obtained:
human ADSCs = test: Flow cytometry of chondrogenic markers in ADSCs; type: cell-based; conditions: third day of differentiation
Experimental: (§1) To further verify the presence of chondrogenic proteins in response to CXCL14-P treatment, ADSCs were analyzed during chondrogenesis using biomarkers such as SOX9, Collagen type II, COMP, and CXCR4. On the third day of differentiation, flow cytometry was used to assess these specific chondrogenic markers. […] ADSCs were monitored until day 7, with cellular uptake of FAM-CXCL14-P observed using fluorescence microscopy, the results were shown in FIG. 7E.

ADSC = test: Real-time PCR of chondrogenic genes in treated ADSCs; type: cell-based, human
Experimental: (§2) To obtain a 3D pellet culture, 1×10^5 MSCs were centrifuged at 1200 rpm for 3 min in polypropylene tubes and cultured for 1 day. To induce chondrogenesis, the pelleted cells were cultured in DMEM-HG (Gibco, cat. no. 121000) containing 1% ITS-Premix (Corning, cat. no. 354352), 1% penicillin streptomycin (Gibco, cat. no. 15240), 1 mM sodium pyruvate (Gibco, cat. no. 11360070), 0.35 mM proline (Sigma-Aldrich, cat. no. P5607), 10 ng/mL TGF-β1 (SinoBio, cat. no. 10804-HNAC), 0.17 mM ascorbic acid 2-phosphate (Sigma-Aldrich, cat. no. A8960), and 100 nM dexamethasone (Sigma-Aldrich, cat. no. D4902). After induction, the chondrogenic differentiation results were evaluated on days 1, 7, 14, and 21.
To identify functional peptide sequences within the CXCL14 protein that enhance chondrogenesis, an CXCL14 peptide (CXCL14-P), which has the amino acid sequence set forth in SEQ ID NO: 2, was used for interacting with CXCR4. […]
MSC-EVs have been reported to have potential for tissue repair; however, naive EVs lack the enhanced capacity to stimulate chondrogenesis and cartilage repair. […] On day 7, ADSCs treated with CXCL14-P-MSC-EVs were analyzed for the expression of SOX9, COL2A1, ACAN, COMP, SOSTDC1, and ITGB1 genes […] using real-time PCR.

ADSC pellets = test: Alcian blue staining of ADSC pellets; type: cell-based
Experimental: as §2, §1

3D ADSC spheroids = test: Immunofluorescence staining of chondrogenic proteins in 3D ADSC spheroids; type: cell-based; conditions: 3D culture
Experimental: MSC spheroids were fixed with 4% paraformaldehyde (PFA) (PH 7.2) in PBS for 30 minutes at room temperature. The samples were then washed with PBS to remove the PFA. Next, the spheroids were carefully transferred into ice-cold methanol and incubated at −40° C. for 25 minutes. Following fixation, the spheroids were treated with 1 mg/mL sodium borohydride to clean them, and then washed with PBS. After washing, the spheroids were incubated in a blocking solution containing 10% normal rabbit serum and 1x PBS with 0.1% sodium azide for 6 hours or overnight. The samples were then incubated with primary antibodies against Collagen type II (ab34712, Abcam), SOX9 (ab185966, Abcam), COMP (sc-374660, Santa Cruz), and Aggrecan (MA3-16888, Invitrogen) for 24 hours at 4° C. Subsequently, the samples were incubated with Alexa Fluor 488-, Alexa Fluor 555-, or Alexa Fluor 647-conjugated secondary antibodies for 1 hour at room temperature. Fluorescence images were acquired using a Leica SP8 STED confocal microscope.

SOSTDC1 = test: qPCR validation of SOSTDC1 after CXCL14 treatment during MSC chondrogenesis; type: cell-based, human
ACLT-induced OA = test: ACLT-induced knee OA mouse model (Safranin O, collagen II IHC, OARSI score); type: in vivo, C57BL/6 mice; conditions: for OARSI score: ACLT mice, ACLT group 5.5, sham 0.17
Description: Surgical ACLT is the most commonly used for generating an animal model of OA. In this study, 8-week-old specific-pathogen-free C57BL/6 mice were subjected to ACLT and medial collateral ligament (MCL) transection for establishing an OA mouse model (n=6). First, the knee joints of the hind limbs were incised along the medial edge of the patellar ligament. After the joint capsule was exposed, the ACL and MCL were transected. […] After deparaffinization, the sections were stained with hematoxylin for 3 min and differentiated in 1% acid alcohol for 15 s, followed by staining in 0.02% aqueous fast green for 3 min and counterstaining with 0.1% Safranin O for 3 min. Finally, the sections were dehydrated in serial dilutions of ethanol, cleared in xylene, mounted onto glass slides by using neutral gum. Each stained area was observed under a light microscope and photographed using a photomicroscope equipped with a CCD video camera.

[1] = tested on: CXCL14, SOX9, COL2A1, and ACAN mRNA expressions; test: Real-time PCR of chondrogenic genes under TGF-b stimulation during chondrogenesis; type: cell-based; conditions: under a low dose of TGF-β stimulation
Experimental: as §2
To better understand the molecular mechanism relating to the control of chondrogenesis modulated by CXCL14, the chondrogenic gene expressions were investigated during chondrogenesis.

[2] = tested on: IPFP-MSC from OA patients; test: Alcian blue staining of GAG during chondrogenesis of IPFP-MSC pellets; type: cell-based, human; conditions: day 3
Experimental: The IPFP tissue was washed repeatedly with Dulbecco's phosphate-buffered saline (Gibco, cat. no. 21600) containing 5% penicillin-streptomycin and amphotericin B solution (Gibco, cat. no. 15240). The tissue was minced and subjected to enzymatic digestion with 0.1% type I collagenase (Gibco, cat. no. 17100017) diluted in minimum essential medium α (α-MEM, Gibco, cat. no. 120000) and 1% bovine serum albumin (Sigma, cat. no. A7906) for 18 h at 37° C. After digestion, an equal amount of culture medium containing 10% fetal bovine serum was added to stop collagenase activity. The cell solution was sieved through a 100-μm mesh and centrifuged at 500 g for 5 min. The cell pellets were resuspended in culture medium (supplemented with 10% FBS, 1% penicillin-streptomycin, and amphotericin B) and seeded in a 10-cm culture dish. The medium was changed every 72 h until the cells reached 80%-90% confluence.
To obtain a 3D pellet culture, 1×10^5 MSCs were centrifuged at 1200 rpm for 3 min in polypropylene tubes and cultured for 1 day. […]
CXCL14 was analyzed to determine the stimulation of chondrogenesis and cartilage regeneration. CXCL14 was also analyzed to determine whether CXCL14 can induce chondrogenesis by using IPFP-MSC from OA patients treated with the recombinant protein CXCL14 and investigating the glycosaminoglycan (GAG) content by Alcian blue staining. […]

Molecule | chondrogenic potential (SOX9, Collagen type II, COMP, CXCR4 markers) (human ADSCs) | CXCL14, SOX9, and COL2A1 gene expression (ADSC; ADSC, real-time PCR on day 7, compared to CXCL14 protein) | SOX9, COL2A1, COMP, and ACAN gene expression (ADSC; one-day treatment then fresh medium, real-time PCR on day 7) | GAG content (Alcian blue staining) (ADSC pellets; ADSC pellets during chondrogenesis) | GAG deposition (Alcian blue staining) (ADSC pellets; ADSC pellets with varying ratios, day 7) | expressions of SOX9, Collagen type II, and Aggrecan (immunofluorescence) (3D ADSC spheroids) | SOSTDC1 expression (qPCR) (SOSTDC1; IPFP-MSCs from OA donors) | SOSTDC1 expression (qPCR) (SOSTDC1; human ADSCs from non-OA donors) | OARSI score (ACLT-induced OA; CXCL14 10 ng) | OARSI score (ACLT-induced OA; CXCL14 20 ng) | cartilage repair, staining GAG content and type II collagen (ACLT-induced OA; ACLT-induced OA model) | CXCL14, SOX9, COL2A1, and ACAN gene expression [1] | GAG deposition (Alcian blue staining) [2]
CXCL14-P: CXCL14 peptide with the amino acid sequence SEQ ID NO: 2, produced through solid-phase peptide synthesis (ITTKSVSRYRGQEH; listed as Homo sapiens) | enhances the chondrogenic potential | stronger chondrogenic gene expression compared to the protein | significantly induced | higher GAG content | increased GAG deposition | consistent results |  |  |  |  |  |  | 
B1 |  |  |  |  |  | elevate | upregulated expression | upregulated expression | 2.7 | 1 | dose-dependent stimulated cartilage repair | induce | increased
